Results published in patent publication US20230235075A1 (published 2023).

T1: Human CD93 recombinant protein (Sino Biological Inc, Catalog #12589-H08H) (human, UniProt Q9NPY3 22-580, biotinylated with EZ-LINK NHS-PEG4 biotin in the Octet assays)
T1 chain: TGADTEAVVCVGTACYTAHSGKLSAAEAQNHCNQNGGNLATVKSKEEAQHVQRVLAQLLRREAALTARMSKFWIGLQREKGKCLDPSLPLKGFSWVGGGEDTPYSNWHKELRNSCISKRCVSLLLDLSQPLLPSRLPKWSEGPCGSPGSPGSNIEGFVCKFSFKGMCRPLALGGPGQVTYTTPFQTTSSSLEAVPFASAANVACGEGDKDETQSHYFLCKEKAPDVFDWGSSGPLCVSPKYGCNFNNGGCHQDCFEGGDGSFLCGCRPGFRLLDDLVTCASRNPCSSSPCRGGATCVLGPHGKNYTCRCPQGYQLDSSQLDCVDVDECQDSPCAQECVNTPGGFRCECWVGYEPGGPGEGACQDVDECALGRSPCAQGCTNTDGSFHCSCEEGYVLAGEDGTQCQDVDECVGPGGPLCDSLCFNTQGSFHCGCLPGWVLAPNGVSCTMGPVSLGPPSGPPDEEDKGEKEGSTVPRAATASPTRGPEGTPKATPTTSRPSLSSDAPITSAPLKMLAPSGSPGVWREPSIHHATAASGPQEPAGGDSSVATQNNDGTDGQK

T2: cynomolgus CD93 protein (made in-house) (cynomolgus, UniProt A0A2K5VH53 22-580, biotinylated with EZ-LINK NHS-PEG4 biotin in the Octet assays)
T2 chain: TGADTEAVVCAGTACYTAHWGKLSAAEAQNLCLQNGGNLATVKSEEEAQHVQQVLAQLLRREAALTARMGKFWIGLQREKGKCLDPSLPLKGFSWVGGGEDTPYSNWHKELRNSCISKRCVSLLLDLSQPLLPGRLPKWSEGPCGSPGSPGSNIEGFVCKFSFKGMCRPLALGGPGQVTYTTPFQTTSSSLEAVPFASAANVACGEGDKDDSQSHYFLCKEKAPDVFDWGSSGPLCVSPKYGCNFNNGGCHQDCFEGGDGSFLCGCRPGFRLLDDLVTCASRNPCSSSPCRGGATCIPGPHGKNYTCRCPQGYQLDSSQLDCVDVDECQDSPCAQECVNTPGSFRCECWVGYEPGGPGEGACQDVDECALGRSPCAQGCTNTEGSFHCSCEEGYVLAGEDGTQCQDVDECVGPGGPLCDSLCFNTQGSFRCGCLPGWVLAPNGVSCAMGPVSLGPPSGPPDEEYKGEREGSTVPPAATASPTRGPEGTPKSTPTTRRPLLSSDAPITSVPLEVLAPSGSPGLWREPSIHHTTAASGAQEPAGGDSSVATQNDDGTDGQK

B1: recombinant parental 17B10-hFc (antibody, V domains shown)
VH: QVQLQQSGPELVKPGASVKISCKASGYAFSSYWLNWVKQRPGKGLEWFGRIYPGDGDTDYNGKFKGKATLTADKSSSTAYMQLRSLTSEDSAVYFCVRGDGYWAMDYWGQGTSVTVSS
VL: DIVMTQAAFSNPVTLGTSASISCRFSKSLLHSNGITYLYWYLQKPGQSPQLLIYQMSNLASGVPDRFSSSGSGTDFTLRISRVEAEDVGVYYCAQNLELPWTFGGGTKLEIK
B2: 17B10 (hybridoma) (antibody, V domains shown)
VH: B1 VH
VL: B1 VL
B3: Humanized 17B10 (VH3VL3, i.e., H3L3) (antibody, V domains shown)
VH: QVQLVQSGPEVKKPGESLKISCKASGYAFSSYWLNWVRQMPGKGLEWMGRIYPGDGDTDYNGKFKGQVTISADKSSGTAYLQLSSLKASDTAVYFCVRGDGYWAMDYWGQGTLVTVSS
VL: DIVMTQSPDSLAVSLGERATINCRFSKSLLHSNGITYLYWYQQKPGQPPKLLIYQMSNLASGVPDRFSGSGSGTDFTLTISSLQAEDVAVYYCAQNLELPWTFGGGTKLEIK
B4: 16E4 (hybridoma) (antibody, V domains shown)
VH: QVQLQQPGAELVKPGASVKLSCKASGYTFTSYWMHWVKQRPGQGLEWIGEIDPSASYTYYNQKFKGKATLTVDKSSSTAYMQLSSLTSEDSAVYYCARSVYYGNKYFDVWGAGTTVTVSS
VL: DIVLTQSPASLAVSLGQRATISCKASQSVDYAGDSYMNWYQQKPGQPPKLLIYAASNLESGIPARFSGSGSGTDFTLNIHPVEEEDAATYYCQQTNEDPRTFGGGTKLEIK
B5: 16E4-hIgG1 (antibody, V domains shown)
VH: B4 VH
VL: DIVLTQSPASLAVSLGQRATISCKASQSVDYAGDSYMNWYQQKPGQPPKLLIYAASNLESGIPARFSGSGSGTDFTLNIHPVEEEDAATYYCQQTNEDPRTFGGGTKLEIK
B6: 10B1 (antibody, V domains shown)
VH: QVQLKQSGPGLVQPSQSLSITCTVSDFSLSSFGVNWVRQPPGKGLEWLGVIWSGGSTDYNVAFISRLSISKDNSKSQVFFKMNNLQADDTAIYYCARNWRYDGYFYAMDYWGQGTSVTVSS
VL: DIVMTQSQKFMSTSTGDRVSVTCKASQNVGTNVAWYQQKPGQSPKALIYSASYRFIGVPDRFTGSGSGTDFTLTITNVQSEDLAEYFCQQYNRNPITFGSGTKLEIK
B7: 7F3 (hybridoma) (antibody, V domains shown)
VH: QVQLQQSGADLVRPGASVKLSCKASGYTFTDYEMHWVKQTPVYGLEWIGGIDPETGDTAYNQNFKGKATLTADKSSSAAYMELRSLTSEDSAVYYCTNYGNLYYYAMDYWGQGTSVTVSS
VL: ENVLTQSPAIMSASPGEKVTMTCRASSSVSSSYLHWYQQKSGASPKLWIYSTSNLAFGVPARFSGSGSGTSYSLTISSVEAEDAATYYCQQYSGYPLTFGSGTKLEIK
B8: 7F3-hIgG1 (antibody, V domains shown)
VH: B7 VH
VL: B7 VL

Tests used:
[1] = biological target: T1, Human CD93 recombinant protein (Sino …); test: ELISA
[2] = biological target: T1, Human CD93 recombinant protein (Sino …); test: ELISA
[3] = biological target: T1, Human CD93 recombinant protein (Sino …); test: Octet
[4] = biological target: T1, Human CD93 recombinant protein (Sino …); test: BLI
[5] = biological target: T2, cynomolgus CD93 protein (made in-house); test: BLI
[6] = biological target: T1, Human CD93 recombinant protein (Sino …); test: ELISA; unit printed as pmM
[7] = biological target: T1, Human CD93 recombinant protein (Sino …); test: ELISA
[8] = biological target: T1, Human CD93 recombinant protein (Sino …); test: Octet BLI
[9] = biological target: T1, Human CD93 recombinant protein (Sino …); test: BLI (Octet)

Row | Binder | EC50 [1] | EC50 [2] | Kd [3] | also measured
1 | B1 | 16.7 pM |  |  | 
2 | B2 | 153 pM |  |  | 
3 | B3 | 213 pM |  |  | 
4 | B4 |  | 112 pM | 334 pM | Kd [4]: 447 pM; Kd [5]: 446 pM; EC50 [6]: 112 pM
5 | B5 | 41 pM | 41 pM | 135 pM | EC50 [7]: 22 pM; Kd [8]: 135 pM
6 | B6 |  |  |  | Kd [9]: 904 pM
7 | B7 |  | 66.7 pM | 493 pM | EC50 [7]: 66.7 pM; Kd [9]: 1260 pM
8 | B8 |  | 41 pM | 588 pM | Kd [8]: 588 pM
